Measurements from US20260167712A1, “INHIBITORY ANTIBODIES AGAINST GLUT1” (ICOSAGEN CELL FACTORY OÜ, priority 2022, published 2026).
“Also recorded” adds a separate entry of the source.

B1: 2E5 #22 (antibody, V domains shown)
VH: AVTLDESGGGLQTPGGALSLVCKASGFTFSTKGMGWVRQTPGKGLEWVAGISSMRRYTYYAPAVKGRATISRDNGQSTVRLQLSSLRAEDSGTYYCARDATYCSWTTSTCGWSGGTIDAWGHGTEVIVSS
VL: ALTQPSSVSANLGGTVKITCSGGSGNYGWYQQKSPGSVPVTVIYSNDKRPSDIPSRFSGSGSGSTATLTITGVQVEDEAVYFCGSRDSSYVGLFGAGTTLTVL
B2: 6F12 #33 (antibody, V domains shown)
VH: AVTLDESGGGLQTPGGALSLVCKASGFTFSDHAIFWVRQAPDKGLEFVAAISSGTGSWTAYATVVKGRATISRDNGQSTVRLQLNNLRAADTATYYCAKGAGSACCYAGSIDAWGHGTEVIVSS
VL: ALTQPSSVSANPGETVKITCSGGSSSSYYGWYQQKSPGSAPVTLIYYNDKRPSDIPSRFSGSKSGSTATLTITGVQVEDEAVYYCGTGDGSFAIFGAGTTLTVL

Tests used:
[1] = tested on: PC3 prostate cancer cell line; assay: Cell proliferation inhibition assay (Incucyte), PC3; format: cell-based; conditions: co-treatment with IACS-010759, compared to single agents, FIG. 11A
Description: (§1) Incucyte S3 Live cell analysis instrument and Cell-by-Cell analysis software module (Sartorius) were used to evaluate the effect of anti-SLC2A1 antibodies on cancer cell proliferation label-free (FIGS. 5-11). MCF7, PC3 or PANC1 or MIAPACA2 cells were plated on flat bottom tissue culture 96-well plate in […] medium (Ximbio) supplemented with 2.5% FBS. Cells were incubated overnight and 0.02 nM to 13 μM anti-SLC2A1 antibodies, anti-HEL isotype control, PBS or BAY-876 were added to the cells alone or in combination with metformin (CaymanChem), phenformin (Sigma Aldrich) or IACS-010759 (CaymanChem). Cell confluence or object count was measured for 24 to 96 hours with Incucyte S3 and normalized to timepoint 0 h or 4h. anti-SLC2A1 antibodies inhibit cancer cell proliferation alone and especially in combination with complex-I inhibitors metformin, phenformin and IACS-010759. Exemplary antibodies 1G2 #9, 2A2 #12, 2E5 #22, 5G5 #30, 6F12 #33, 7C3 #39 and R14 #54 were used in proliferation assays.

MCF7 breast cancer cells = assay: Cell proliferation inhibition assay (Incucyte), MCF7; format: cell-based; conditions: for MCF7 cell growth in combination with phenformin: co-treatment with phenformin, FIGS. 7 and 9
Description: as §1

[2] = Body weight in MiaPaca2 xenograft study; format: in vivo, mice; conditions: during treatments, FIG. 12B
Description: (§2) Hsd:Athymic Nude-Foxn1^nu mice (10 per group) were inoculated with 5e6 MiaPaca2 cells/mouse subcutaneously.

[3] = tested on: MiaPaca2 xenograft tumors; assay: Antitumor efficacy against MiaPaca2 xenograft tumors; format: in vivo, mice; conditions: 6F12 #33 200 ug per mouse IP every 72 h plus daily Phenformin 20 mg/kg IP, versus phenformin alone, FIG. 12A
Description: as §2

[4] = tested on: PANC1 pancreatic cancer cell line; assay: Cell proliferation inhibition assay (Incucyte), PANC1; format: cell-based; conditions: co-treatment with IACS-010759, compared to single agents, FIG. 11B
Description: as §1

[5] = tested on: MIAPACA2 pancreatic cancer cell line; assay: Cell proliferation inhibition assay (Incucyte), MIAPACA2; format: cell-based; conditions: co-treatment with IACS-010759, compared to single agents, FIG. 11C
Description: as §1

Molecule | PC3 cell growth in combination with IACS-010759 [1] | MCF7 cell growth (confluence), single agent (MCF7 breast cancer cells; alone, Incucyte) | MCF7 cell growth in combination with phenformin (MCF7 breast cancer cells) | body weight [2] | tumor growth, cotreatment with phenformin [3] | PANC1 cell growth in combination with IACS-010759 [4] | MCF7 cell growth in combination with IACS-010759 (MCF7 breast cancer cells; co-treatment with IACS-010759, FIG. 8) | MCF7 cell growth in combination with metformin (MCF7 breast cancer cells; co-treatment with metformin, FIG. 6) | MIAPACA2 cell growth in combination with IACS-010759 [5]
B1 | strong synergistic growth inhibition | only a modest inhibition | completely inhibit; also recorded: most potent growth inhibitors | – | – | – | – | – | –
B2 | – | – | completely inhibit; also recorded: drastically inhibited; also recorded: most potent growth inhibitors | No changes; also recorded: remained unchanged | statistically significant tumor growth inhibition | dramatic growth reduction | drastically inhibited | drastically inhibited | dramatic growth reduction
